Measurements taken from the nanobody polyreactivity screen of Harvey et al. (2022).

assay: yeast display, Sf9 membrane polyspecificity reagent, FACS + sequencing; frameworks hold sequencing errors
Summary of the method: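 A synthetic nanobody library was expressed on Saccharomyces cerevisiae BJ5465 by galactose induction for 36–48 hours. The library was stained for 1 hour at 4 °C with 10% biotinylated, detergent-solubilized Sf9 membrane reagent and enriched with streptavidin microbeads before FACS. Low and high (top ~1%) gates were set on anti-HA fluorescence for expression and streptavidin fluorescence for reagent binding, and each polyreactivity label reflects the gate of origin.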

Sequence | polyreactivity (PSR sort gate)
QVQVVESGGGLVQAGGSLRLSSAASGSTFNYNAMGWYRQAPGKERELVAAITNGGSTSYADSVKGRFTISRDNAKNTVYLQMNSLKPEDTAVYYCNADEDLRGYDYWGQGTQVTVSS | low polyreactivity
QVQVVESGGGLVQEGGSLRLSCAASGSTFGINAMGWYRPAPGKEREWVAAITSTGRTYYADSVKGRFTNSRDNAKNTVYLQMNSLKPEDTAVYYCAAVWRYKGLLLPSYYYWGQGTQVTVSS | high polyreactivity
QVQVVESGGGLVQTGGSLRLSCAASGSTFRRYDMGWYRPAPGKEWELVAAISVSGGNTYYADSVKGRFTISRDNAKNTVYLQMNSLKPEDTAVYYCATSRWVDNKYTLRSRYYYWGQGTQVTVSS | high polyreactivity
QVQVVESRGGLVQAGGRLRLSCAASGSTFGVNAMGWYRTAPGKERELVAAISYTGGSTYYADSVKGRFTISRDNAKNTVYLQMNSLKAEHTAVSYCAVEVGYTDSPYSYDYWGQGTQVTVSS | low polyreactivity
QVQVVETGGGLVQAGGSLRLSCAPSGITFVTYAMGWYRQAPGKERELVAAISRSGGRTYYADSVNVRFTISRDNAKNTVYLQMNSLKPEDTAVYYCAAERKNKYDYWGQGTQVTVSS | high polyreactivity
QVQVVKSGGGLVQAGGSLSLSCAASGRTFGVYAMGWYRQAPGNESELVAGIRWRGGSTYYADSVKGRFTISRDNSKNTVYLQMKSLKPEETAVYYCAADVDLVKDDYWGQGTQVTVSS | low polyreactivity
QVRLVESGGGLVQAGGSLRLSCAASGRTLFVYDMGWYRQAPGKERELVAAISTGDDTNYADSVKGRFTISRDNAKNTVYLQMNSLKPEDTAVYYCNALYYTYPYWGYPSDYNLDYWGQGTQVTVSS | low polyreactivity
QVRLVESGGGLVQAGGSLRLSCAASGSTFKTYAMGWYRQAPGIERELVAAISAGGGSTYYADSVKGRFTISRDNAKNTVYLQMNSLKPEDTAVYYCAAAYIYAGWDYEYGGQGTQVTVSS | low polyreactivity
RSGGGLVQAGGSLRLSCAPSGRIFKINAMGWYRQPPGKERALVARITRGGSTYYADSVKGRFTISRDNATNTVYLQMTSVKPEDTAVYYCAADDTGPYSNSYDYWGQGTQVTFSS | low polyreactivity
RVQLQESGGGLVQAGGSLRLSCAASGTIFIRGDMGWYRQAPGKEREFVATIDTGSNTYYADSEKGRFTISRDNATNAVYLHMNCLKPGDTAFYYCVVDYQLSGRLRYWGQGTQVTLSS | low polyreactivity
RVQLVESGGGLVQAGGSLRLSCAASGRIFDNYVMGCYRQAPGKDRELLAAISSGGGTYYADSVKGRFTISRDNAMNTVYLQMNSLKPEDTAVYFCAKRRVYDRSFGRYDYWGQGTQVTGSS | low polyreactivity
RVQLVESGGGLVQAGGSLRLSCAASGSTFLVYAMGWYRQAPGKERELVAVIRWRDGSTYYADSVKGRFTISRDNAKNTVYLQLNSLKPEDTAVYYCAAVYWGEEYEYWGQGTQVTVSS | low polyreactivity
